Reference: the RNAGym collection of RNA variant scans (doi:10.1073/pnas.2313332121)
Fewer inactive variants are shown than the library holds.

B1: TPR 5TU (parent)
chain: GGAUCUUCUCGAUCUAACAAAAAAGACAAAUCUGCCACAAAGCUUGAGAGCAUCUUCGGAUGCAGAGGCGGCAGCCUUCGGUGGCGCGAUAGCGCCAACGUUCUCAACUAUGACACGCAAAACGCGUGCUCCGUUGAAUGGAGUUUAUCAUG

Variants of: B1
Experiment: polymerase ribozyme fitness, log enrichment relative to wild type (log ratio); higher = more active; in vitro selection for triplet polymerase activity
Summary of the method: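 PCR was used to build mutant libraries for each subunit of a heterodimeric triplet polymerase ribozyme, which were then transcribed. A single in vitro selection round, in triplicate, used a frozen incubation at −7 °C and recovered extended constructs by gel excision, streptavidin beads and RT-PCR. Fitness is the logarithm of genotype enrichment relative to wild-type enrichment, averaged over replicates with inverse-variance weights. The logarithm is base 2, and after Illumina sequencing only genotypes with ≥10 input reads and ≥1 read per output were kept.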

Going from C5G C69G C93U to U6C A40U U56A G59U C87U A98U C118U, the “polymerase ribozyme fitness (log ratio)” value rises from -4.12 to -0.984.

First: C5G C96U
Second: U6C C129G
The “polymerase ribozyme fitness (log ratio)” value of the first is higher: -0.763 for the first, -3.13 for the second.

U6C A17U A64U A73U C85G U127A U130G A142G and U6C C14U U44A G68U G92U A98G C99G cannot be ordered by “polymerase ribozyme fitness (log ratio)” value: ≤ -4.2 for the first, ≤ -4.2 for the second.

First: C5G U78C G84A G136U
Second: C5U G84A A142U
The “polymerase ribozyme fitness (log ratio)” value of the first is lower: -3.39 for the first, -0.976 for the second.

C5U U7A G88U U148C A150C and C5G A22U G58U A60U A64U G83C cannot be ordered by “polymerase ribozyme fitness (log ratio)” value: ≤ -4.2 for the first, ≤ -4.2 for the second.

Going from U6C A47G G59C G92U C99A C118G to C5U A22U C27G C36G G83U C103G C116U G136U, the “polymerase ribozyme fitness (log ratio)” value falls from -3.32 to ≤ -4.2.

Compared with U6A U56A, C5G U7A U56A A91C A106G C125A G136A U145A is lower in “polymerase ribozyme fitness (log ratio)” value: -0.431 for the first, ≤ -4.2 for the second.

Going from C5G G50C C85U to C5U U45A G50U G86C C96U, the “polymerase ribozyme fitness (log ratio)” value falls from -3.69 to ≤ -4.2.

Compared with C5G G25C A28C C57G G58A C76G G143U, U6C C54U C76U is higher in “polymerase ribozyme fitness (log ratio)” value: ≤ -4.2 for the first, -2.15 for the second.

Going from C5G C8G C85A G126U to U6A A16C U56A U61A C95U C114U, the “polymerase ribozyme fitness (log ratio)” value rises from ≤ -4.2 to -3.64.

Going from C5U A40G G84A A97G to C5U A24C C79A G84A U104A A142G, the “polymerase ribozyme fitness (log ratio)” value falls from -3.39 to ≤ -4.2.

Compared with U6C C8A U111G G143C, C5U U45G A119U is higher in “polymerase ribozyme fitness (log ratio)” value: ≤ -4.2 for the first, -0.808 for the second.

Going from C5U A52U G67U C93U C96U A115C to C5U C85U, the “polymerase ribozyme fitness (log ratio)” value rises from ≤ -4.2 to -0.24.

Compared with C5U A21G G59C C93G, C5G A21U A49G C93A A137U is lower in “polymerase ribozyme fitness (log ratio)” value: -1.3 for the first, ≤ -4.2 for the second.

First: U6C C27U U145C
Second: C5U A12U C18G G70C G80A C93G C95U A98G U144G
The “polymerase ribozyme fitness (log ratio)” value of the first is higher: -3.08 for the first, ≤ -4.2 for the second.

C5U A41U G68A G94A C99G U102G A115G C125G and C5G U9C A16C A28G A30U C32G C35A G59U G92U C105U G143C cannot be ordered by “polymerase ribozyme fitness (log ratio)” value: ≤ -4.2 for the first, ≤ -4.2 for the second.

C5G A39C C87A G126A G136C and C5U A20C C43G C76G C108G C114U A120U U146G cannot be ordered by “polymerase ribozyme fitness (log ratio)” value: ≤ -4.2 for the first, ≤ -4.2 for the second.

U6A G68A G83C U90G C118U and C5G C27U C38G G81A U104C A115C cannot be ordered by “polymerase ribozyme fitness (log ratio)” value: ≤ -4.2 for the first, ≤ -4.2 for the second.

First: C5G A23C C72U G88U C132G U135G U148G
Second: U6C C87A
The “polymerase ribozyme fitness (log ratio)” value of the first is higher: -3.99 for the first, ≤ -4.2 for the second.

Going from U6C C87U to C5G C93U, the “polymerase ribozyme fitness (log ratio)” value falls from -1.52 to -2.31.

Going from C5G C93G to C5G A29U A64U G86U A150G, the “polymerase ribozyme fitness (log ratio)” value falls from -2.51 to ≤ -4.2.

First: C5U C51A G58A G81C
Second: C5U U33A G88U C96U U127C
The “polymerase ribozyme fitness (log ratio)” value of the first is higher: -1.81 for the first, ≤ -4.2 for the second.

Going from C5G G71U to U6C C95U A98U C99U, the “polymerase ribozyme fitness (log ratio)” value rises from -3.09 to -2.4.

Compared with U6C C8U U15G, C5G A23G G50C A52C C69G A119G is lower in “polymerase ribozyme fitness (log ratio)” value: -2.42 for the first, ≤ -4.2 for the second.

Compared with C5G C10U C76A C87U G92A, U6A C57G A64G C76U C87A is lower in “polymerase ribozyme fitness (log ratio)” value: -2.35 for the first, ≤ -4.2 for the second.

Going from C5U U13A A23G C36U G46A A97U C103U to C5G U82A C95U, the “polymerase ribozyme fitness (log ratio)” value rises from ≤ -4.2 to -0.788.

Compared with C5G G50A U61G G62A A66C C96A U146A, U6A C87U is higher in “polymerase ribozyme fitness (log ratio)” value: ≤ -4.2 for the first, -0.846 for the second.

Going from C5G G94C U101G to U6C A47C C85A, the “polymerase ribozyme fitness (log ratio)” value falls from -2.68 to -3.96.

Compared with C5U C8U A23C C85U C103A C116U, C5G G84A is higher in “polymerase ribozyme fitness (log ratio)” value: ≤ -4.2 for the first, -0.0388 for the second.

Compared with U6C C10G, U6C is higher in “polymerase ribozyme fitness (log ratio)” value: -3.97 for the first, -0.0891 for the second.

Compared with U6A, U6C A24U A40C U56A A73U C76G C129U is lower in “polymerase ribozyme fitness (log ratio)” value: 0.197 for the first, ≤ -4.2 for the second.

Going from U6C C87A G88U C96A A120U C123U to C5G G50U C57U G92C A120G, the “polymerase ribozyme fitness (log ratio)” value rises from ≤ -4.2 to -2.75.

Going from U6A A22U G59U A73U U109G to C5U A73U G83A, the “polymerase ribozyme fitness (log ratio)” value rises from -3.52 to -0.929.

Going from C5G U53A to C5G G34A U134A, the “polymerase ribozyme fitness (log ratio)” value falls from -1.8 to -3.83.

Compared with U6C A16G A24U C96A C118U, C5G C18A C87G G143A is lower in “polymerase ribozyme fitness (log ratio)” value: -3.92 for the first, ≤ -4.2 for the second.

Compared with C5G U9A C54U U146C, U6C A60U G86A is lower in “polymerase ribozyme fitness (log ratio)” value: -2.79 for the first, -3.49 for the second.

Compared with C5U U15A A17G C18U G42A U53A U55A A60C G68C C79U A91C A97G, C5G G83A is higher in “polymerase ribozyme fitness (log ratio)” value: ≤ -4.2 for the first, -1.24 for the second.

First: C5G C54U U56A C99U
Second: U6A G11A A64C C72U C87U A120G C149A
The “polymerase ribozyme fitness (log ratio)” value of the first is higher: -1.99 for the first, ≤ -4.2 for the second.

Compared with C5G C32U C96U A122G, C5G U82G G86U A121G is higher in “polymerase ribozyme fitness (log ratio)” value: -3.38 for the first, -2.13 for the second.

C5G G50A C87U C103G U111C C132U and U6A A23C G68U G100U C131U G143U cannot be ordered by “polymerase ribozyme fitness (log ratio)” value: ≤ -4.2 for the first, ≤ -4.2 for the second.

Going from C5G C85A to C5U U13C C95U U146G, the “polymerase ribozyme fitness (log ratio)” value rises from -1.7 to -1.13.

Compared with C5G U9C A97G G141C, C5U A29U G62A G67C A142U is lower in “polymerase ribozyme fitness (log ratio)” value: -3.27 for the first, ≤ -4.2 for the second.
